Data published in PMC3790964 (Biochimica et Biophysica Acta, 2013).

Target: the molecule itself
Assay: cross-linking + affinity purification with mass spectrometry

B1: stomatin (natural protein, human (endogenous in erythrocytes), UniProt P27105 1-288, looked up)
chain: MAEKRHTRDSEAQRLPDSFKDSPSKGLGPCGWILVAFSFLFTVITFPISIWMCIKIIKEYERAIIFRLGRILQGGAKGPGLFFILPCTDSFIKVDMRTISFDIPPQEILTKDSVTISVDGVVYYRVQNATLAVANITNADSATRLLAQTTLRNVLGTKNLSQILSDREEIAHNMQSTLDDATDAWGIKVERVEIKDVKLPVQLQRAMAAEAEASREARAKVIAAEGEMNASRALKEASMVITESPAALQLRYLQTLTTIAAEKNSTIVFPLPIDMLQGIIGAKHSHLG
stoichiometry N: 2
